Non-standard residues stand in square brackets, D forms with d. No end group written: not given here. Cit = NC(=O)NCCC[C@H](N)C(=O)O
Tests used:
[1] = target: T1, human recombinant histone 2A (human); assay: ELISA, Ab 2 ug/well
T1 construct: Non-deiminated; also called H2A
Excerpt: (§1) The resulting OD (y-axis) is a measure for antibody binding. H1-recombinant histone 1; H1/p2-huPAD2 recombinant histone 1; H1/p4-huPAD4 recombinant histone 1, and so forth (x-axis).

[2] = target: T2, huPAD2-deiminated human recombinant histone 2A (human); assay: ELISA, Ab 2 ug/well
T2 construct: also called H2A/p2; histone 2A/p2
Excerpt: as §1

[3] = target: T3, human recombinant histone 2B (human); assay: ELISA, Ab 2 ug/well
T3 construct: Non-deiminated; also called H2B
Excerpt: as §1

[4] = target: T4, huPAD2-deiminated human recombinant histone 2B (human); assay: ELISA, Ab 2 ug/well
T4 construct: also called H2B/p2
Excerpt: as §1

[5] = target: T5, huPAD2-deiminated human recombinant histone 3 (human); assay: ELISA, Ab 2 ug/well
T5 construct: also called H3/p2; histone 3/p2
Excerpt: as §1

[6] = target: T6, huPAD4-deiminated human recombinant histone 3 (human); assay: ELISA, Ab 2 ug/well
T6 construct: also called H3/p4
Excerpt: as §1

[7] = target: human recombinant histone 4 (human, UniProt P62805 2-103); assay: ELISA, Ab 2 ug/well
Excerpt: as §1

[8] = target: T7, CFC-1; assay: ELISA, Ab 0.016 ug/well
T7 construct: Positive control for anti-citrulline reactivity; also called cfc1 XG; Cfc1-peptide
Experimental: (§2) Biotin and citrulline-containing peptides derived from fibrinogen and vimentin were immobilized on NEUTRAVIDIN®-coated 96-well ELISA plates (0.3 μg/well). CFC-1 and CFC-0 were coated at the same concentration and served as positive and negative controls, respectively, for specific anti-citrulline reactivity and as coating controls. Non-coated wells were used to test for aspecific binding of the antibodies. […] Detection of bound anti-citrulline antibodies was performed by incubating the wells with rabbit anti-human HRP (1:2000) for 1 hour at RT followed by incubation with TMB substrate. The resulting OD (y-axis) is a measure for antibody binding.
(§3) Biotin-labeled and citrulline-containing fibrinogen and vimentin peptides (Table 5) were also tested for reactivity with the therapeutic antibodies. Peptides were coated on 96-well NEUTRAVIDIN®-ELISA plates.

[9] = target: T8, msFibα XH (mouse, X at position 15 = citrulline; biotin-labelled); assay: ELISA, Ab 0.016 ug/well
T8 peptide: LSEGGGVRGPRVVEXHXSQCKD
Experimental: as §2, §3

[10] = target: T9, msFibα XG (mouse, X at position 8 = citrulline; biotin-labelled); assay: ELISA, Ab 0.016 ug/well
T9 peptide: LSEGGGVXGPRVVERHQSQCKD
Experimental: as §2, §3

[11] = target: T10, huFibα XH (human, X at position 15 = citrulline; biotin-labelled); assay: ELISA, Ab 0.016 ug/well
T10 peptide: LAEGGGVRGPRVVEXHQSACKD
Experimental: as §2, §3

[12] = target: T11, huFibα XG (human, X at position 8 = citrulline; biotin-labelled); assay: ELISA, Ab 0.016 ug/well
T11 peptide: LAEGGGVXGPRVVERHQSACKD
Experimental: as §2, §3

[13] = target: T12, msFibβ XG (mouse, also: biotin-labelled); assay: ELISA, Ab 0.016 ug/well
T12 construct: also called mouse fibrinogen β peptide
T12 peptide: EPTDSLDA[Cit]GHRPVDRR
Experimental: as §2, §3

[14] = target: T13, msVim XS/XL (mouse, also: biotin-labelled); assay: ELISA, Ab 0.016 ug/well
T13 construct: also called mouse vimentin peptide
T13 peptide: YVT[Cit]SSAV[Cit]L[Cit]SSVP
Experimental: as §2, §3

B1: RhmAb2.102 (antibody, human IgG1, lambda)
heavy: not shown
light: QSVLTQPPSMSAAPGQKVTISCSGSSSNIGNNYVSWYQQVPGTAPKLLIYDDNKRPSGIPGRFSGSKSATSATLGITGLQAGDEADYYCGSWDDNLSVVLFGGGTKLTVLGQPKAAPSVTLFPPSSEELQANKATLVCLISDFYPGAVTVAWKADSSPVKAGVETTTPSKQSNNKYAASSYLSLTPEQWKSHRSYSCQVTHEGSTVEKTVAPTECS
notes: Human IgG1 lambda; also called Rhm2.102
OD [1]: 0.115 OD450
OD [2]: 3.18 OD450
OD [3]: 0.076 OD450
OD [4]: 0.086 OD450
OD [5]: 1.94 OD450
OD [6]: 0.439 OD450
OD [7]: 0.208 OD450
OD [8]: 1.22 OD450
OD [9]: 0.081 OD450
OD [10]: 0.107 OD450
OD [11]: 0.08 OD450
OD [12]: 0.103 OD450
OD [13]: 0.174 OD450
OD [14]: 0.201 OD450

Reference: US20150307603A1 (MODIQUEST B V, published 2015)
